# Test results published in paper PMC2646873 (Biochemistry, 2008).
# Target: the molecule itself
# Assay: crystal structure
protein,measurement,value
CysM (Rv1336) (enzyme) MTRYDSLLQALGNTPLVGLQRLSPRWDDGRDGPHVRLWAKLEDRNPTGSIKDRPAVRMIEQAEADGLLRPGATILEPTSGNTGISLAMAARLKGYRLICVMPENTSVERRQLLELYGAQIIFSAAEGGSNTAVATAKELAATNPSWVMLYQYGNPANTDSHYCGTGPELLADLPEITHFVAGLGTTGTLMGTGRFLREHVANVKIVAAEPRYGEGVYALRNMDEGFVPELYDPEILTARYSVGAVDAVRRTRELVHTEGIFAGISTGAVLHAALGVGAGALAAGERADIALVVADAGWKYLSTGAYAGSLDDAETALEGQLWA,stoichiometry N,2
